Laboratory results taken from EP2487185A1 (Clinuvel Pharmaceuticals Limited, dated 2012).
Non-standard residues stand in square brackets, D forms with d. Nle = CCCC[C@H](N)C(=O)O

Target: Melanocortin-1 Receptor (human, UniProt Q01726 1-317)
Experiment: cell-based or functional assay

Sequence of Melanocortin-1 Receptor (Q01726 whole entry): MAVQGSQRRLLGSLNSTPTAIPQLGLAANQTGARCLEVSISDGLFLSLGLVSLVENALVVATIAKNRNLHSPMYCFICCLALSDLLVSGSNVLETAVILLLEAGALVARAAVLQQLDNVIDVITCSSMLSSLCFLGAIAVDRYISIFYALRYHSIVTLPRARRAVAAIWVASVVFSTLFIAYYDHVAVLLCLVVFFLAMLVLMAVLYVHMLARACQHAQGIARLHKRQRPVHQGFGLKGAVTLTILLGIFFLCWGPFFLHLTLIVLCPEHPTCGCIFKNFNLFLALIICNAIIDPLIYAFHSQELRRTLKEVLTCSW

tyrosinase activity, concentration giving maximal stimulation, melanocyte strain 102b, 6 days: 0.1 nM
B1: CUV9900, Ac-Nle-Glu-His-D-Phe-Arg-Trp-NH2 (SEQ ID NO: 1) variation (peptide)
peptide: Ac-[Nle]EH[dF]RW-NH2
SMILES: CCCC[C@H](NC(C)=O)C(=O)N[C@@H](CCC(=O)O)C(=O)N[C@@H](Cc1c[nH]cn1)C(=O)N[C@H](Cc1ccccc1)C(=O)N[C@@H](CCCNC(=N)N)C(=O)N[C@@H](Cc1c[nH]c2ccccc12)C(N)=O
